Results: US20160046707A1

Legend:
[1] = molecular target: recombinant human CCL20 (R&D Systems, #360-MP-025/CF) (human) (UniProt P78556); test: cell-based or functional assay
[2] = molecular target: recombinant human CCL20 (R&D Systems, #360-MP-025/CF) (human) (UniProt P78556); test: SPR (Biacore): antibody captured on anti-human Fc, 100 nM chemokine injected; ratio = chemokine binding level over antibody capture level
[3] = molecular target: recombinant human CCL20 (R&D Systems, #360-MP-025/CF) (human) (UniProt P78556); test: SPR (Biacore), antibody captured by anti-human Fc, human CCL20 injected (monovalent format), 1:1 Langmuir, average of two experiments

Chain of recombinant human CCL20 (R&D Systems, #360-MP-025/CF) (human) (P78556 other isoform, or with tags, fused parts or gaps limits assumed): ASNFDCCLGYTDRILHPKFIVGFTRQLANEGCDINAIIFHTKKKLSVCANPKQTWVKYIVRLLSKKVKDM

IC50, chemotaxis of human CCR6-transduced B300.19 cells toward 10 nM human CCL20 [1] [nM] | IC90, chemotaxis of human CCR6-transduced B300.19 cells toward 10 nM human CCL20 [1] [nM] | IC95, chemotaxis of human CCR6-transduced B300.19 cells toward 10 nM human CCL20 [1] [nM] | ReqCk/ReqAb ratio [2] | IC50, chemotaxis assay, Assay-1 [1] [nM] | IC50, chemotaxis assay, Assay-2 [1] [nM] | IC50, chemotaxis assay, Assay-3 [1] [nM] | IC50, chemotaxis assay, Average [1] [nM] | IC90, chemotaxis assay, Assay-1 [1] [nM] | IC90, chemotaxis assay, Assay-2 [1] [nM] | IC90, chemotaxis assay, Assay-3 [1] [nM] | IC90, chemotaxis assay, Average [1] [nM] | IC95, chemotaxis assay, Assay-1 [1] [nM] | IC95, chemotaxis assay, Assay-2 [1] [nM] | IC95, chemotaxis assay, Assay-3 [1] [nM] | IC95, chemotaxis assay, Average [1] [nM] | Kd [3] [nM] | koff [3] [s⁻¹] | kon [3] [M⁻¹ s⁻¹] | Binder
1.7 | 3.94 | 7.68 | – | – | – | – | – | – | – | – | – | – | – | – | – | – | – | – | mouse anti-human CCL20 monoclonal antibody 36F7C10 (antibody, V domains shown) VH: QVQLQQPGAELVKPGASVKMSCKASGYTFTNYWMHWVKQRPGQGLEWIGVIDPSDSYTTYNQKFKGKATLTVDTSSSTAYMQLSSLTSEDSAVYYCTRGNYGVDYAMDYWGQGTSVTVSS VL: DIQMTQSPASLSASVGETVTITCGASENIYGALNWYQRKQGKSPQLLIYGATNLADGMSSRFSGSGSGRQYSLKISSLHPDDVATYYCQNVLITPYTFGGGTKLEIK
– | – | – | 0.143 | 0.65 | 1.09 | 1.3 | 1.01 | 3.55 | 3.35 | 6.79 | 4.56 | 7.59 | 5.41 | 13.9 | 8.97 | 0.07 | 0.00117 | 1.66e+07 | humanized anti-human CCL20 antibody 36LK3/36HC2 (antibody, human IgG1, kappa, V domains shown) VH: QVQLVQSGAEVKKPGASVKVSCKASGYTFTNYWMHWVRQAPGQGLEWMGVIDPSDSYTTYAQKFQGRVTMTVDTSTSTVYMELSSLRSEDTAVYYCARGNYGVDYAMDYWGQGTLVTVSS VL: DIQMTQSPSSLSASVGDRVTITCGASENIYGALNWYQRKPGKAPKLLIYGATNLADGVPSRFSGSGSGRDYTLTISSLQPEDFATYYCQNVLITPYTFGQGTKLEIKR

Further lines, the binder ahead of its results:

Binder | IC50, chemotaxis of human CCR6-transduced B300.19 cells toward 10 nM human CCL20 [1] [nM] | IC90, chemotaxis of human CCR6-transduced B300.19 cells toward 10 nM human CCL20 [1] [nM] | IC95, chemotaxis of human CCR6-transduced B300.19 cells toward 10 nM human CCL20 [1] [nM] | ReqCk/ReqAb ratio [2] | IC50, chemotaxis assay, Assay-1 [1] [nM] | IC50, chemotaxis assay, Assay-2 [1] [nM] | IC50, chemotaxis assay, Assay-3 [1] [nM] | IC50, chemotaxis assay, Average [1] [nM] | IC90, chemotaxis assay, Assay-1 [1] [nM] | IC90, chemotaxis assay, Assay-2 [1] [nM] | IC90, chemotaxis assay, Assay-3 [1] [nM] | IC90, chemotaxis assay, Average [1] [nM] | IC95, chemotaxis assay, Assay-1 [1] [nM] | IC95, chemotaxis assay, Assay-2 [1] [nM] | IC95, chemotaxis assay, Assay-3 [1] [nM] | IC95, chemotaxis assay, Average [1] [nM] | Kd [3] [nM] | koff [3] [s⁻¹] | kon [3] [M⁻¹ s⁻¹]
chimeric 36F7C10 antibody (36F7C10-hFc) (antibody, V domains shown) VH: QVQLQQPGAELVKPGASVKMSCKASGYTFTNYWMHWVKQRPGQGLEWIGVIDPSDSYTTYNQKFKGKATLTVDTSSSTAYMQLSSLTSEDSAVYYCTRGNYGVDYAMDYWGQGTSVTVSS VL: DIQMTQSPASLSASVGETVTITCGASENIYGALNWYQRKQGKSPQLLIYGATNLADGMSSRFSGSGSGRQYSLKISSLHPDDVATYYCQNVLITPYTFGGGTKLEIK | 1.44 | 3.51 | 5.48 | 0.153 | – | – | – | – | – | – | – | – | – | – | – | – | – | – | –
humanized anti-human CCL20 antibody 36LC3/36HC2 (antibody, human IgG1, kappa, V domains shown) VH: QVQLVQSGAEVKKPGASVKVSCKASGYTFTNYWMHWVRQAPGQGLEWMGVIDPSDSYTTYAQKFQGRVTMTVDTSTSTVYMELSSLRSEDTAVYYCARGNYGVDYAMDYWGQGTLVTVSS VL: DIQMTQSPSSLSASVGDRVTITCRASENIYGALNWYQQKPGKAPKLLIYGATNLADGVPSRFSGSGSGRQYSLTISSLQPEDFATYYCQNVLITPYTFGGGTKLEIKR | – | – | – | 0.156 | 0.9 | 1.26 | 1.2 | 1.12 | 4.64 | 5.82 | 5.3 | 5.25 | 11.8 | > 66.8 | 10.3 | – | 0.044 | 0.00061 | 1.45e+07
